Assay results taken from article PMC10853779.

Biological target: T1, phosphorylated NarL (E. coli nitrate-responsive transcription regulator), wild type (E. coli K12), P0AF28
T1 chain: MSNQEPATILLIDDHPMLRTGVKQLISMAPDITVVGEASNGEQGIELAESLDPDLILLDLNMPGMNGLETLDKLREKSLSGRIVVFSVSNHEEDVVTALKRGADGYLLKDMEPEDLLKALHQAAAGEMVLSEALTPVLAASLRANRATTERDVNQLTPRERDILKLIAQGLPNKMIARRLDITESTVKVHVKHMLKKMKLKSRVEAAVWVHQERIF
Assay: cryo-EM structure
Settings: remark: other sources report otherwise

- stoichiometry N: 2
B1: phosphorylated NarL (E. coli nitrate-responsive transcription regulator), wild type, P0AF28 1-216 (natural protein)
chain: T1 chain
